From patent US20160090422A1 (Genentech, published 2016)

Columns and labels:
human CRTh2 [1] = molecular target: T1, human CRTh2 (human, UniProt Q9Y5Y4 1-395); experiment: radioligand cell binding assay with homologous competition (Scatchard), 300.19 cells expressing human CRTh2
T1 construct: also native CRTh2 on primary human basophils, eosinophils and Th2 cells; also called hCRTh2; chemoattractant receptor-homologous molecule expressed on T helper 2 cells
T1 sequence: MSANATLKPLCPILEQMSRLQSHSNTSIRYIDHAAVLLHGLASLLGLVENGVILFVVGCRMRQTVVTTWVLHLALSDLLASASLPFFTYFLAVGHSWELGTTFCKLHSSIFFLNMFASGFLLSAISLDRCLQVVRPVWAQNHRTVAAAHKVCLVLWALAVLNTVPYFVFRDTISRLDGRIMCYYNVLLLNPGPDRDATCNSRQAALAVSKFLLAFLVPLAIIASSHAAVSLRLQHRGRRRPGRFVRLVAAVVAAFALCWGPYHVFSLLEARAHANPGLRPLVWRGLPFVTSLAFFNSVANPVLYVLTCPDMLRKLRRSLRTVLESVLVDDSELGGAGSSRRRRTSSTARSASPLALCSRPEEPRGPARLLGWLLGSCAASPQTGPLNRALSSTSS
Method: (§1) The equilibrium dissociation constants (KD) for anti-CRTH2 antibodies binding to cells expressing recombinant CRTh2 receptor were determined using a radioligand cell binding assay. […] The cells expressing the CRTh2 receptor were incubated for 2 hours at room temperature with a fixed concentration of iodinated anti-CRTh2 antibody combined with increasing concentrations of unlabeled anti-CRTh2 antibody and including a zero-added, buffer only sample. After the 2-hour incubation, the competition reactions were transferred to a Millipore Multiscreen filter plate and washed 4 times with binding buffer to separate the free from bound iodinated antibody. The filters were counted on a Wallac Wizard 1470 gamma counter. The binding data was evaluated using NewLigand software (Genentech), which uses the fitting algorithm of Munson and Rodbard to determine the binding affinity of the anti-CRTh2 antibody (Munson and Rodbard, Anal. Biochem, 1980; 107: 220-239).
(§2) To obtain a direct measurement of the KD value of humanized antibodies h19A2.v12 and h19A2.v60, Fab fragments of these antibodies were generated and subjected to radioligand cell binding assays (FIG. 4B).

human CRTh2 [2] = molecular target: T1, human CRTh2; experiment: radioligand cell binding assay with homologous competition (Scatchard), 293 cells expressing human CRTh2
Method: as §1, §2

B1: murine anti-CRTh2 antibody 19A2 (antibody, V domains shown)
VH: EVKLVESGGGLVQPGGSLKLSCAASGFTFSSYSMSWVRQTPEKRLEWVAYISNGGSTTYYPGTVEGRFTISRDNAKNTLFLQMSSLRSKDTAMYYCARHRTNWDFDYWGQGTTLTVSS
VL: DIQMTQSPASLSVSVGETVTITCRASENIYSNLAWYQQKQGKSPQLVVYAATQLADGVPSRFSGSGSGTQYSLKINSLQSEDFGSYYCQHFWITPWTFGGGTKLEIK
notes: whole IgG in the Scatchard assay; also called mu19A2; Mab 19A2
- Kd (human CRTh2 [1]): 10.2 nM
- Kd (human CRTh2 [2]): 2 nM
